# Laboratory results reported in the nanobody polyreactivity screen of Harvey et al. (2022).
# Experiment: yeast display, Sf9 membrane polyspecificity reagent, FACS + sequencing; frameworks hold sequencing errors
# Method in brief: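 A nanobody's polyreactivity label depends on the gate it was sorted from. Yeast display cells were stained with 10% biotinylated, detergent-solubilized Sf9 membrane reagent for 1 hour at 4 °C, enriched on streptavidin microbeads and sorted by FACS. The low and high (top ~1%) gates were set on anti-HA fluorescence for expression and streptavidin fluorescence for reagent binding.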
row,Sequence,polyreactivity (PSR sort gate)
1,QVQLVESGGGLVQAGGSLRLSCAASGSIFNYYAMGWYRQAPGKERELVAGITTSGGSTYYADSVKGRFTISRDNAKNTVYLQMNSLKPEDTAVYYWAAYDYISSTYFLDDYWGQGTQVTVSS,low polyreactivity
2,QVQLVESGGGLVQAGGSLRLSCAASGSIFNYYVMGWYRQAPGKERELVAGIRWNGGSTYYADSVKGRFTISRDNAKNTVYLQMNSLKPEDTAVYDCAAQAWWGYYSRGPMDYWGQGTQVTVSS,low polyreactivity
3,QVQLVESGGGLVQAGGSLRLSCAASGSIFPAIAKGWYRQAPGTERELVAAISVSGARTYYADSVKGRFTISRDNAKNTVYLQMNSLKPEDTAVYYCAARAAGSQHDYWGQGTQVTVSS,high polyreactivity
4,QVQLVESGGGLVQAGGSLRLSCAASGSIFPANAMGWYRQAPGKERELVAAINRDGITNYADSVKGRFTISRDNAKNTVYLQMNSLKPEDTAVYYCAAEFAWQWWEYGYWGQGTQVTVSS,low polyreactivity
5,QVQLVESGGGLVQAGGSLRLSCAASGSIFPAYAMGWYRQAPGKERELVAASTDRGGSTSYADSVKGRFTISRDNAKNTVYLHKNSLKPEDT,low polyreactivity
6,QVQLVESGGGLVQAGGSLRLSCAASGSIFPAYAMGWYRQAPGKERELVASITGSGGSTYYADSVKGRFTISRDIAKNTVYLQMNSLKPEDTAVYYCNARYYVYSATVDRYYHFYYWGQGTQVTVSS,high polyreactivity
7,QVQLVESGGGLVQAGGSLRLSCAASGSIFPDYAMGRYRQAPGKERELVAGISSNSGSTYYADSVKGRFTISRDNAKNTVYLQMNSLKPEDTAVYYCAKDSFWRDTGYTDGDYWGQGTKVTVSS,low polyreactivity
8,QVQLVESGGGLVQAGGSLRLSCAASGSIFPDYDMGWYRQAPGKERELVAAISSSGDSTYYADSVKGRFTISRDIAKNTVYLQMNSLKPEDTAVYYCAVDGTRSTSNGSEFTGYNYWGQGTQVTVSS,low polyreactivity
9,QVQLVESGGGLVQAGGSLRLSCAASGSIFPDYTMGWYRQAPGKERELVAAITRSGDSTYYADSVKGRFTISRDNAKNTVYLQMNSLKPEDTAVYYCARDAFSVSDFSYASIEYDYWGQGTQVTVSS,low polyreactivity
10,QVQLVESGGGLVQAGGSLRLSCAASGSIFPEYAMGWYRQAPGKERELVASISSGGSSTYYADSVKGRFTISRDNAKNTVYLQMNSLKPEDTAVYYCARRRSYKRRFDYWGQGTQVTVSS,low polyreactivity
11,QVQLVESGGGLVQAGGSLRLSCAASGSIFPFYAMGWYRQAPGKERELVAAITRSDGSTYYADSVKGRFTISRDNAKNTVYLQMNSLKPEDTAVYYCADYGYWGQGTQVTVSS,low polyreactivity
12,QVQLVESGGGLVQAGGSLRLSCAASGSIFPGNAIGSYRQAPGKERELDARITVSGGTTYFADSVKGRFTISRDNAKNTVYLQMNSLKPEDTAVYYCAADGPSPFIQGYAKGDYWGQGTQVTVSW,low polyreactivity
13,QVQLVESGGGLVQAGGSLRLSCAASGSIFPGNAMGWSRQAPGKEREFVAAISWSGGSTYADSVKGRFTISRDNAKNTVYLQINSVKPEDTAVYYCAAVRRYLKAAYGYWGQGTKVTVSS,low polyreactivity
14,QVQLVESGGGLVQAGGSLRLSCAASGSIFPGNAMGWYRQAPGKERELVAAIRGGGSTNYADSVKGRFTISRDNAKNTVYLQMNSLKPEDTAVYYCNADPFTGYDYWGQGTQVTVSS,low polyreactivity
15,QVQLVESGGGLVQAGGSLRLSCAASGSIFPGNAMGWYRQAPGKERELVAVIDFSGASTYYADSVKGRFTISRDNAKNTVYLQMNSLKPEDTADYWGQGSQVTVSS,low polyreactivity
16,QVQLVESGGGLVQAGGSLRLSCAASGSIFPGNTMGWYRQAPGKERELVAGIDKNGGRTYYADSVKGRFTISRDNAKNTVYLQMNSLKPEDTAVYYCAADTWVFRRAFWTKYEYWGQGTQVTVSS,low polyreactivity
17,QVQLVESGGGLVQAGGSLRLSCAASGSIFPGYALGWYRQAPGKERELVATIRWSSGSRTNYADSVKGRFTISRENAKKTVYLQMNSLKPEDSAVYYCAAGSRRYKYDYWGQGTQVTVSS,high polyreactivity
18,QVQLVESGGGLVQAGGSLRLSCAASGSIFPGYAMGWSRQAPGKERELVAAISTSGGSTYADSVKGRFTISRDNAKNTVYLQMNSLKPEDTAVYYCAATYTYTSPVYYSLDGPWPYDYWGQGTQVTVSS,low polyreactivity
19,QVQLVESGGGLVQAGGSLRLSCAASGSIFPHYAMGWYREAPGKERELVAAISRGGSTNYADSVKGRFTISRDNAKNTVYLQMNSLKPEDTAVYYCNALRYYSRFQYAVAYRYDYWGQGTQVTVSS,high polyreactivity
20,QVQLVESGGGLVQAGGSLRLSCAASGSIFPIYAMGRYRQAPGKERELVAAIDSSGGSTYYADSVKGRFTISRDNAKNTVYLQMNSLKPEDTAVYYCAADFGSKSTPYDYWGQGTQVTVSS,low polyreactivity
21,QVQLVESGGGLVQAGGSLRLSCAASGSIFPIYAMGWDRQAPGKERELVASINISGGRTYYADSVKGRFTISRDNAKNTVYLQMNSLKPEDSAVYYCAAEWYTTSEYDYWGQGTQVTVSS,low polyreactivity
22,QVQLVESGGGLVQAGGSLRLSCAASGSIFPIYAMGWYRQATGKERELVAAINSGGGTNYADSVKGRFTISRDNAKNTVYLQMNSLKPEDTAVYYCAKSRYDYTKTEGGYWGQGTQVTVSS,low polyreactivity

row,Sequence,polyreactivity (PSR sort gate)
1,QVQLVESGGGLVQAGGSLRLSCAASGSIFPKYAMGWYRQAPGKEREFVAAISRRGGSTYYAYSVKGRFTISRDNAKNTVYLQMNSLKPEDTAVYYCSVKIPTYPIFGRYGYWGQGTQVTVSS,high polyreactivity
2,QVQLVESGGGLVQAGGSLRLSCAASGSIFPKYAMGWYRQAPGKERELVATISYRGGRTYYADSVKGRFTISRDNAKNTVYLQMYSLKPEDTAVYYCATRYPYYPFYVGIYELDYWGQGTQVTVSS,low polyreactivity
3,QVQLVESGGGLVQAGGSLRLSCAASGSIFPLYAMGWYRQAPGKERELVAAITSNGGRTYYADSVKGRFTISRDNAKNTVYLQMNSLKPEDTAVYYCNKYLLDYRRGRSDYWGQGTQVTVSS,low polyreactivity
4,QVQLVESGGGLVQAGGSLRLSCAASGSIFPLYAMGWYRQAPGKERELVAGINGNDGSTYYADSVKGRFTISRDYEKNTVYLQRNRLKPEDTAVYYCAARGSTAHPHYPFNYWGQGTQVTVSS,low polyreactivity
5,QVQLVESGGGLVQAGGSLRLSCAASGSIFPPYAMGWYRQAPGKERELVATITIRGGSTYYADSVKGRFTISRDNAKNSVYLQMNSLKPEDTAVYYCAADYTKYYRRYYYWGQGTQVTVSS,high polyreactivity
6,QVQLVESGGGLVQAGGSLRLSCAASGSIFPQYAMGWYRQAPGKERELVAAISWSGGRTYYADSVKGRFTISRDNAKNTVYIQMNSLKPEDTAVYYCNRLYRRWYGREDDYWGQGTQVTVSS,high polyreactivity
7,QVQLVESGGGLVQAGGSLRLSCAASGSIFPQYAMGWYRQAPGKERELVAVISWSGGRTYYADSVKGRFTISRDNAKNTVYLQMNSLKPEDTAVYYCAAKYWYQRYPQSSYTRYYWGQGTQVTVSS,high polyreactivity
8,QVQLVESGGGLVQAGGSLRLSCAASGSIFPRNAMGWSRQAPGKEMELVATITSGTSTNYADSVKGRFTISRDNAKNTVYLQMNSLKPEDTAVYYCAADHYYTGTTYNYWGQGTQVTVSS,low polyreactivity
9,QVQLVESGGGLVQAGGSLRLSCAASGSIFPRNAMGWYRQAPGKERELVAAISWRGGRTYYADSVKGRFTISRDNAKKTVYLQMNSLNPEDTAVYYCSEQYSRWKRGEYYLSSSYGYWGQGTQVTVSS,high polyreactivity
10,QVQLVESGGGLVQAGGSLRLSCAASGSIFPRNAMGWYRQAPGKERELVAAITSSGGTTYYADSVKGRFTISRDNAKNTVYLQMISLKPEDTAVYYCNAAYPYSSVGRDYWGQGTQVTVSS,high polyreactivity
11,QVQLVESGGGLVQAGGSLRLSCAASGSIFPRYAMGWYRQAPGKERELVAAITGSGSSTYYADSVKGRFTISRDNAKNTVYLQMNSLKPEDTAVYYCADRFIWGYWGVGYYYWGQGTQVTVSS,low polyreactivity
12,QVQLVESGGGLVQAGGSLRLSCAASGSIFPRYAMGWYRQAPGKERELVAAITGSGSSTYYADSVKGRFTISRDNAKNTVYLQMNSLKPEDTAVYYCAGVYTYPLGYYHYTYDYWGQGTQVTVSS,low polyreactivity
13,QVQLVESGGGLVQAGGSLRLSCAASGSIFPRYAMGWYRQAPGKERELVAAITSSAGSTYYADSVKGRFTISRDNAKNTVYLQMNSLKPEDTAVYYCAASGPWSYWYDYWGQGTQVTVSS,low polyreactivity
14,QVQLVESGGGLVQAGGSLRLSCAASGSIFPRYVMAWYRQAPGKERELVAAISGSGGSTYYADSVKGRFTISRDNAKNTVYFQMNSLIPEDTAVYYCNKLRRRVNRDIDDYWGQGTQVTVSS,high polyreactivity
15,QVQLVESGGGLVQAGGSLRLSCAASGSIFPSNAMGWYRQAPGKERELVAAISSSGGRTYYADSVKGRFTISRDNAKNTVYLQMNSLKPEDTAVYYCNRVYFKSRQGQMYYWGQGTQVTVSS,high polyreactivity
16,QVQLVESGGGLVQAGGSLRLSCAASGSIFPSNAMGWYRQAPGKERELVAAISWSGDITYYADSVKGRFTISRDNAKNTVYLQLNSLKPEDTAVYYCAADTPIAGYWYNYWGQGTQVTVSS,low polyreactivity
17,QVQLVESGGGLVQAGGSLRLSCAASGSIFPSYAMGWYRQAPGKERELVAAISKSGGRTKYADSVKGRFTISRDNAKNTVYLQMNSLKPEDTAVYYCAAYAYFHRREGYWGQGTQVTVSS,high polyreactivity
18,QVQLVESGGGLVQAGGSLRLSCAASGSIFPSYAMGWYRQAPGKERELVAAISRSAGSTYYADSVKGRFTISRDNAKNTVYLQMNSLKPEDTAVYYCAADGYSSRYRYDYWGQGTQVTVSS,low polyreactivity
19,QVQLVESGGGLVQAGGSLRLSCAASGSIFPSYAMGWYRQAPGKERELVAAISSSGGSTYYADSVKGRFTISRDNAKNTVYLQMNSLKPEDTAVYYCATRYRRWSTVVQDDYWGQGTQVTVSS,low polyreactivity
20,QVQLVESGGGLVQAGGSLRLSCAASGSIFPSYAMGWYRQAPGKERELVATIGRGGTTNYADSVKGRFTISRDNAKNTVYLQMNSLKPEDTAVYYCNAERIWRYKYGYDYWGQGTQVTVSS,high polyreactivity
21,QVQLVESGGGLVQAGGSLRLSCAASGSIFPVNAMGLYRQAPGKERELVAAITASGDSTYYADSVKGRFTISRDNAKNTVYLQMNSLKPEDTAVYYCNADGSYENREVYSFYYWGQGTQVTVSS,low polyreactivity
